This is an account of results in paper PMC11374702, “Structural basis of the Meinwald rearrangement catalysed by styrene oxide isomerase” (Nature Chemistry, 2024).

This test addresses styrene oxide isomerase (SOI), Pseudomonas sp. VLB120, wild type (Pseudomonas sp. VLB120, UniProt O50216). The experiment in a line: cell-based or functional assay.

B1: nanobody (NB) raised against SOI, used for structure determination (VHH)
VHH: QGQLVESGGGLVQAGGSLRLSCTGSGRAFVTPAVGWFRQAPGKEREFVGTINWSGSHTSYADPVKGRFTISRDNAKETVYLQMNNLKPEDADVYYCASRGVSGRYEYWGKGTPVTVSS
As to B1, the “catalytic efficiency (kcat/KM) for (S)-styrene oxide of the SOI–NB complex compared to the wild-type enzyme, coupled enzyme assay with EcALDH” value worked out at 3 fold.
